Data: patent US20240376170A1 (BRIGHT PEAK THERAPEUTICS, published 2024)
Bridges are numbered along the chain shown (N, C = ends). Primed or numbered codes have the meaning given here. [ ]: non-standard residue; d: D form. 8x polyethylene glycol‑amino = O-(8x polyethylene glycol-amino)-tyrosine, SITE 45; 9x polyethylene glycol‑azido = O-(9x polyethylene glycol-azido)-tyrosine, SITE 42; Ygp″ = O-(8x polyethylene glycol-amino)-tyrosine; Yn3″ = O-(9x polyethylene glycol-azido)-tyrosine; hSer = N[C@@H](CCO)C(=O)O; Nle = CCCC[C@H](N)C(=O)O

T1: IL-2 receptor βγ complex (human, UniProt P14784 27-551; P31785 23-369)
T1 sequence (looked up) 1: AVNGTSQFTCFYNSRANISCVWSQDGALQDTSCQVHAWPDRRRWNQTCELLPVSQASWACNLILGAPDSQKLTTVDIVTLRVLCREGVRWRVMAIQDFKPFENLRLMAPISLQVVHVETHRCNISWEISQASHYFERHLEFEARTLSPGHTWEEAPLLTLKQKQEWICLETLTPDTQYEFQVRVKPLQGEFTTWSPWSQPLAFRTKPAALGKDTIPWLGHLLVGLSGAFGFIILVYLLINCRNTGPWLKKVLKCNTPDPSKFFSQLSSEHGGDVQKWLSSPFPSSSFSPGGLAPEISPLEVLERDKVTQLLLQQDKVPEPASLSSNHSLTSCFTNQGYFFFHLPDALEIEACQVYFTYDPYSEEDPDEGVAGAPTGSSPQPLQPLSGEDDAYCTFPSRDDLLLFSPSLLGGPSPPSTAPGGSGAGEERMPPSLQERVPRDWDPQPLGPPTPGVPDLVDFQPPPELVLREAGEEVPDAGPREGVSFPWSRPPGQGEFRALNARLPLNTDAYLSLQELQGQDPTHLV
T1 sequence (looked up) 2: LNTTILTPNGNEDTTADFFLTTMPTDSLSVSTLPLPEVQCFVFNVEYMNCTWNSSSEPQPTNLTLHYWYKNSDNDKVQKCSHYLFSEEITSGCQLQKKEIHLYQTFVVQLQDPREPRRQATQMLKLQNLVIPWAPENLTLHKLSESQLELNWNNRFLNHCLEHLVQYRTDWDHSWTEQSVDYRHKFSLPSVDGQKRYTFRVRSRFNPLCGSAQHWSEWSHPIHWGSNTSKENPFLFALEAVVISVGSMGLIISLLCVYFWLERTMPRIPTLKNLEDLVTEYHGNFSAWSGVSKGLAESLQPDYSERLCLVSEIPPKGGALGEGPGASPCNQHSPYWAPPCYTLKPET

B1: CMP-316, Matriptase cleaved molecule (ligand)
chain: APTSSSTKKTQLQLEHLLLDLQKILNGINNYKNPKLTR[Nle]L[hSer]Y(9x polyethylene glycol‑azido)KFY(8x polyethylene glycol‑amino)[Nle]PKKATELKHLQCLEEELKPLEEVL[hSer]LAQSKNFHLRPRDLISNINVIVLELKGSETTF[hSer]CEYADETATIVEFLNRWITFSQSIISTLT
modifications: also: matriptase cleavage product, not given here as a sequence, Lys23 side-chain attachment remnant unknown
B2: CMP-315, Matriptase cleaved molecule (ligand)
chain: APTSSSTKKTQLQLEHLLLDLQKILNGINNYKNPKLTR[Nle]L[hSer]Y(9x polyethylene glycol‑azido)KFY(8x polyethylene glycol‑amino)[Nle]PKKATELKHLQCLEEELKPLEEVL[hSer]LAQSKNFHLRPRDLISNINVIVLELKGSETTF[hSer]CEYADETATIVEFLNRWITFSQSIISTLT
modifications: also: matriptase cleavage product, not given here as a sequence, Lys23 side-chain attachment remnant unknown
B3: CMP-327 (ligand)
chain: APTSSSTKKTQLQLEHLLLDLQEILNGINNYKNPKLTR[Nle]L[hSer][Yn3″]KF[Ygp″][Nle]PKKATELKHLQCLEEELKPLEEVL[hSer]LAQSKNFHLRPRDLISNINVIVLELKGSETTF[hSer]CEYADETATIVEFLNRWITFSQSIISTLT
modifications: bridge 9-23; not fully specified (bridges); ends not checked; also: further groups not given here
B4: CMP-316, uPa cleaved molecule (ligand)
chain: APTSSSTKKTQLQLEHLLLDLQKILNGINNYKNPKLTR[Nle]L[hSer]Y(9x polyethylene glycol‑azido)KFY(8x polyethylene glycol‑amino)[Nle]PKKATELKHLQCLEEELKPLEEVL[hSer]LAQSKNFHLRPRDLISNINVIVLELKGSETTF[hSer]CEYADETATIVEFLNRWITFSQSIISTLT
modifications: also: uPa cleavage product, not given here as a sequence, Lys23 side-chain attachment remnant unknown
B5: CMP-327, Matriptase cleaved molecule (ligand)
chain: APTSSSTKKTQLQLEHLLLDLQEILNGINNYKNPKLTR[Nle]L[hSer][Yn3″]KF[Ygp″][Nle]PKKATELKHLQCLEEELKPLEEVL[hSer]LAQSKNFHLRPRDLISNINVIVLELKGSETTF[hSer]CEYADETATIVEFLNRWITFSQSIISTLT
modifications: ends and bridges not checked; also: Lys9-Glu23 peptide bridge cut by matriptase, fragments left on side chains not given here
B6: CMP-326, MMP2 cleaved molecule (ligand)
chain: APTSSSTKKTQLQLEHLLLDLQEILNGINNYKNPKLTR[Nle]L[hSer][Yn3″]KF[Ygp″][Nle]PKKATELKHLQCLEEELKPLEEVL[hSer]LAQSKNFHLRPRDLISNINVIVLELKGSETTF[hSer]CEYADETATIVEFLNRWITFSQSIISTLT
modifications: not fully specified; ends and bridges not checked; also: Lys9-Glu23 peptide bridge cut by MMP2, fragments left on side chains not given here
B7: CMP-327, MMP2 cleaved molecule (ligand)
chain: APTSSSTKKTQLQLEHLLLDLQEILNGINNYKNPKLTR[Nle]L[hSer][Yn3″]KF[Ygp″][Nle]PKKATELKHLQCLEEELKPLEEVL[hSer]LAQSKNFHLRPRDLISNINVIVLELKGSETTF[hSer]CEYADETATIVEFLNRWITFSQSIISTLT
modifications: ends and bridges not checked; also: Lys9-Glu23 peptide bridge cut by MMP2, fragments left on side chains not given here
B8: CMP-326, Matriptase cleaved molecule (ligand)
chain: APTSSSTKKTQLQLEHLLLDLQEILNGINNYKNPKLTR[Nle]L[hSer][Yn3″]KF[Ygp″][Nle]PKKATELKHLQCLEEELKPLEEVL[hSer]LAQSKNFHLRPRDLISNINVIVLELKGSETTF[hSer]CEYADETATIVEFLNRWITFSQSIISTLT
modifications: not fully specified; ends and bridges not checked; also: Lys9-Glu23 peptide bridge cut by matriptase, fragments left on side chains not given here
B9: CMP-326, uPa cleaved molecule (ligand)
chain: APTSSSTKKTQLQLEHLLLDLQEILNGINNYKNPKLTR[Nle]L[hSer][Yn3″]KF[Ygp″][Nle]PKKATELKHLQCLEEELKPLEEVL[hSer]LAQSKNFHLRPRDLISNINVIVLELKGSETTF[hSer]CEYADETATIVEFLNRWITFSQSIISTLT
modifications: not fully specified; ends and bridges not checked; also: Lys9-Glu23 peptide bridge cut by uPa, fragments left on side chains not given here
B10: CMP-316, MMP2 cleaved molecule (ligand)
chain: APTSSSTKKTQLQLEHLLLDLQKILNGINNYKNPKLTR[Nle]L[hSer]Y(9x polyethylene glycol‑azido)KFY(8x polyethylene glycol‑amino)[Nle]PKKATELKHLQCLEEELKPLEEVL[hSer]LAQSKNFHLRPRDLISNINVIVLELKGSETTF[hSer]CEYADETATIVEFLNRWITFSQSIISTLT
modifications: also: K23 side chain attached to another sequence, m93 after MMP2 cleavage, product not given here as a sequence
B11: CMP-326 (ligand)
chain: APTSSSTKKTQLQLEHLLLDLQEILNGINNYKNPKLTR[Nle]L[hSer][Yn3″]KF[Ygp″][Nle]PKKATELKHLQCLEEELKPLEEVL[hSer]LAQSKNFHLRPRDLISNINVIVLELKGSETTF[hSer]CEYADETATIVEFLNRWITFSQSIISTLT
modifications: bridge 9-23; not fully specified (bridges); ends not checked; also: further groups not given here
B12: CMP-315, uPa cleaved molecule (ligand)
chain: APTSSSTKKTQLQLEHLLLDLQKILNGINNYKNPKLTR[Nle]L[hSer]Y(9x polyethylene glycol‑azido)KFY(8x polyethylene glycol‑amino)[Nle]PKKATELKHLQCLEEELKPLEEVL[hSer]LAQSKNFHLRPRDLISNINVIVLELKGSETTF[hSer]CEYADETATIVEFLNRWITFSQSIISTLT
modifications: also: uPa cleavage product, not given here as a sequence, Lys23 side-chain attachment remnant unknown

Biological target: T1, IL-2 receptor βγ complex
Assay: cell-based or functional assay

Average EC50, pSTAT5 Assay in NK cells [nM]	Binder
0.617	B1
0.387	B2
16.6	B3
0.533	B4
17.3	B5
16	B6
0.85	B7
17.6	B8
18	B9
0.46	B10
15.5	B11
0.335	B12
